Experimental data from paper PMC11058611, “Characterization of a novel GH30 non-specific endoxylanase AcXyn30B from Acetivibrio clariflavus” (Applied Microbiology and Biotechnology, 2024).

Key:
purified protein [1] = substrate: O=[N+]([O-])c1ccc(O[C@@H]2OC[C@@H](O[C@@H]3OC[C@@H](O[C@@H]4OC[C@@H](O)[C@H](O)[C@H]4O)[C@H](O)[C@H]3O)[C@H](O)[C@H]2O)cc1; assay: purified protein; format: biochemical, Acetivibrio clariflavus; conditions: 50 mM sodium phosphate buffer, pH 6, 40 °C, 0.05–1 mM substrate
purified protein [2] = substrate: O=[N+]([O-])c1ccc(O[C@@H]2OC[C@@H](O[C@@H]3OC[C@@H](O)[C@H](O)[C@H]3O)[C@H](O)[C@H]2O)cc1; assay: purified protein; format: biochemical, Acetivibrio clariflavus; conditions: 50 mM sodium phosphate buffer, pH 6, 40 °C, 0.05–1 mM substrate

B1: AcXyn30B (Acetivibrio clariflavus DSM 19732) (protein)
chain: SYTASVDVNTTYQTLEGFGAAIAWYNDYLTTHPNKNDLYRILFYDSGLDILRLRNQYRNSNNFGYDDMEIVKYGKIMNPNLKVLLSSWSPPSDLKRNGVMNGGTLAKENGSFVYEKFADYWYNSLVAYRAKGIIPDYISIQNEPEYESGDWETCIFRETETSEYPSYAKALDAVYEKIKDLPDMPKILGVESAGIMNNTVQNYARYMDLSKVYGIAHHLYNGGDPYNPDSFNDIFRSLARDFADKPLFMTEYDYGTPFTTAELIHNSLVVEGVSGYFYWDLIWENSQRPLVAIEVPRNPEQWTTKEGYIISDFYYIMQQFAKFTDPGYKRVDASVSSNDIKVSAFVSPDKSKLTMIFINKGYSEHSVALDLKGYSSNKSIIYRTLPEGNERFKKVGSLFGNTVTLPARSVVTVALGVDDEEQIPPQLPTPTPKPESRSAYDIIQAEDYNEMYGIQCETIADDGNKNVAYIENGDYILFKGVDFGTGATGFEASVASAESGGAIEIRLDELYGTTVVKIPVSGTGDWHNYVTVKADIPEIKGKHDLYLVFTGGGGYLFNIDWFVFTGGTVENPVPEVIYGDVNGDGDFNSIDYGYLKMYLLGQIKEFPSKDGMIAADVNGDGTVNSIDYAYMKMRLLGQISKFPVE
notes: purchased from NZYTech (CZ0917); full-length 673 aa: signal peptide 28 aa, GH30 29-446, CBM6 469-593, dockerin 602-673
Km (purified protein [1]): 230 µM
kcat (purified protein [1]): 10.4 s⁻¹
kcat/Km (purified protein [1]): 56100 M⁻¹ s⁻¹
Km (purified protein [2]): 210 µM
kcat (purified protein [2]): 7.4 s⁻¹
kcat/Km (purified protein [2]): 34900 M⁻¹ s⁻¹
